Where a chain is given by its changes, count along the chain named.
T1: 10E8-GT10.2 epitope scaffold (designed scaffold 10E8-GT10.2 with …, N-linked glycosylation sites added (positions not given))
T1 chain: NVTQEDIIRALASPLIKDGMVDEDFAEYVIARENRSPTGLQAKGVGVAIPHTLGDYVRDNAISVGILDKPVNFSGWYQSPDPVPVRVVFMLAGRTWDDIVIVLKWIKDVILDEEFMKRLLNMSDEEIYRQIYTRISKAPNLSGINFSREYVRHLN

B1: MPER-051 (antibody, V domains shown)
VH: QVQLVESGGGLVKPGGSLRLSCAASGFTFSDYYMSWIRQAPGKGLEWVSYISSSGSTIYYADSVKGRFTISRDNAKNSLYLQMNSLRAEDTAVYYCASLAHTYYDFWSGYYDRYYGMDVWGKGTTVTVSS
VL: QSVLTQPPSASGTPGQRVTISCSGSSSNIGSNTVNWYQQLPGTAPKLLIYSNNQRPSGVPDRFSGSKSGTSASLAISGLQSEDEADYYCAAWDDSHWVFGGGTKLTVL
B2: NHP-10E8_MPER-GT10v55_W21-01 (antibody, V domains shown)
VH: EVRLVESGGGLVQPGGSLRLSCAASGFTFSDYYMSWVRQAPGKGPEWVGFIRNKANGGTAEYAASVKGRFTISRDDSKSIASLQMNSLKTEDTAVYYCARAPLHYNFWSGYYTDYGLDSWGQGVVVTVSS
VL: DIVMTQSPDSLAVSLGERVTINCKSSQSLLYSSNNKNYLAWYQQKPGQAPKLLIYWASTRESGVPNRFSGSGSGSDFTLTISGLQAEDVAVYYCQQYYSTPHSFGQGTKVEIK
B3: MPER-052 (antibody, V domains shown)
VH: EVQLVESGGGLVQPGRSLRLSCTASGFTFGDYAMSWVRQAPGKGLEWVGFIRSKAYGGTTEYAASVKGRFTISRDDSKSIAYLQMNSLKTEDTAVYYCTRDLMGYYDFWSGYYRGHYGMDVWGKGTTVTVSS
VL: AIQMTQSPSSLSASVGDRVTITCRASQGIRNDLGWYQQKPGKAPKLLIYAASSLQSGVPSRFSGSGSGTDFTLTISSLQPEDFATYYCLQDYNYPLTFGGGTKVEIK
B4: NHP-10E8_MPER-GT10v55_W3-18 (antibody, V domains shown)
VH: EVQLVESGGGLVQPGGSLRLSCAASGFTFSDYAMDWVRQAPGKGLEWVGYIRSKDYGGTAEYAASVKGRLTISRDDSKNTAYLQMNSLKTEDTAVYYCSRGRGYYHFWSGYYTPYNRFDVWGPGVLVTVSS
VL: DVVMTQSPLSLPVTPGQPASISCRSSQSLVHSDGKTYLNWLQQKPGQPPRRLIYQVSNRDSGVPDRFSGSGAGTDFTLKISRVEAEDVGVYYCVQGTNVPWTFGQGTKVEIK
B5: NHP-10E8_MPER-GT10v55_W3-19 (antibody, V domains shown)
VH: EVQLVESGGGLVQPGGSLRLSCAASGFTFSNYWMSWVRQAPGKGLEWVGFIKNKADGGTAAYAESVKGRFSISRDDSKNTLYLQMNSLKTEDTAVYYCTRDVGRYNFWSGYYSHNRIDVWGPGVLVTVSS
VL: SYELTQPPSVSVSPGQMARITCGGDNLGSKYVHWFQQKPAQAPALVIYDDSDRPSGIPERFSGSKSGNTATLTISGVESGDEADYYCQVWDSGTDHPLFGGGTRLTV
B6: MPER18_d21_45.1_v55_m3_C07 (antibody, V domains shown)
VH: QVQLKQSGPGLVQPSQSLSITCTVSGFSLTNYDIHWVRQSPGKGLEWLGVIWSGGSTDYNAGFISRLSISKDNSKSQVFFKMNSLQGDDTAIYYCARGGGYYEDYVMDYWGQGTSVTVSS
VL: DIQMTQSPASLSASVGETVTITCRASGNIHNYLAWYQQKQGESPHLLVYNAKTLADGVPSRFSGSDSGTQYSLKINSLQPEDFGSYYCQHFWTTPYTFGGGTKLEIK
B7: MPER18_d21_45.1_v55_m3_D12 (antibody, V domains shown)
VH: QVQLQQSGAELMKPGASVILSCKATGYTFTGYWIEWVKLRPGHGLEWIGEILPGNSSTKYNEKFKGKATFTADTSSNTANMQLSSLTTEDSAIYYCARRWNDYDGVAWFGYWGQGTLVSVSA
VL: B6 VL with E42K, H45Q, N50S, D66G, T93S
B8: MPER18_d21_45.1_v55_m3_D01 (antibody, V domains shown)
VH: B6 VH with I34V, E46A, G62T, S76T, G87A, V106A
VL: NIVLTQSPASLAVSLGQRATISCRASESVDTYGNSFMHWYQLKPGQPPKLLIYLASNLESGVPARFSGSGSRTDFTLTIDPVEADDAATYYCQQNNEDPYTFGGGTELEIQ
B9: MPER18_d21_45.1_v55_m3_F02 (antibody, V domains shown)
VH: QVQLKQSGPGLVQPSQSLSITCTVSGFSLTSNGVHWVRQSPGKGLDWLGVIWTGGSTDYNTTFLSRLSISKDNSKSQVFFKMNSLQADDTAIYYCARGGGYYEDYAMDYWGQGTSVTVSS
VL: B6 VL with E42K, H45Q, D66G, Y87C, T93S, K107R
B10: MPER18_d21_45.1_v55_m3_F03 (antibody, V domains shown)
VH: EVQLQQSGPVLVKPGPSLKISCKASGFTITDYYMHWVKQTHGKSLAWIGLLYPYNGGTSYNQKFKGKATLTVDTSSSTAYMELNSLTSDDSAVYYCAREGHYDRKGYFDVWGTGTTVTVSS
VL: DIVMTQSHKFMSTSVGDRVSITCKASQDVSTAVAWYQQKPGQSPKLLIYWASTRHTGVPDRFTGSGSGTDYTLIISSVQAEDLALYYCQQHYSIPFTFGSGTKLEIK
B11: NHP-10E8_MPER-GT10v55_W21-02 (antibody, V domains shown)
VH: EVQLVESGGGLVQPGGSLRLSCAASGFTFSNYWMSWVRQAPGKGLEWVGFIKNKADGGTAAYAESVKGRFTISRDDSKNTLYLQMNSLKTEDTAVYYCARAGAPYYNFWSGYYESYDAFDFWGQGLRVTVSS
VL: QPVLTQPTSLSASPGASARLTCTLRSGISVGSYRIFWYQQKPGSPPRYLLNYHTDSDKHQGSGVPSRFSGSKDASANAGILLISGLQSEDEADYYCMIWHNNAVLFGGGTRLTV
B12: MPER18_d21_45.2_v55_04 (antibody, V domains shown)
VH: QVQLQESGPGLVKPSETLSLTCTVSGDSISSYYWNWIRQPPGKGLEWIGYFYYYGSTNYNPSLKSRVTISVDTSKNQFSLNLSSVTAADTAVYYCAREPPYYDFWSGLSMGVDTFDIWGQGTMVTVSS
VL: DVVMTQTPLSLPVSLGDQASISCRSSQSLVHSNGNTYLHWYLQKPGQSPKLLIYKVSNRFSGVPDRFSGSGSGTDFTLKISRVEAEDLGVYFCSQSTHVPRTFGGGTKLEIK
B13: MPER18_d21_45.2_v55_24 (antibody, V domains shown)
VH: B12 VH with D27G, N35S, F51I, Y54S, N81K, D113G, T114A, M123L
VL: DVLLTQSPLALPVSLGDQASISCRSSQSIVHSNGYTYLEWYLQKPGQSPKLLVYKVSNRFSGVPDRFSGSGSGTDFTLKISRVETEDLGVYYCFQGSHVPYTFGGGTKLEIK
B14: MPER18_d21_45.2_v55_m15_E09 (antibody, V domains shown)
VH: B12 VH with D27G, S31N, N35S, Y54S, S56T, N81K, D113G, T114A
VL: B13 VL with L4M, S7T, A10S, H31Y, V53I, T85A, Y101W
B15: MPER18_d21_45.2_v55_m15_C05 (antibody, V domains shown)
VH: QVQLQESGPGLVKPSETLSLTCTVSGGSISSYCWSWIRQSPGKGLEWIGYIYYSGSINHNPSLKSRVTISADTSKNQFSLKLSSVTAADTAVYYCAREPPYYDFWSGLSMGVGAFDIWGQGTMVTVSS
VL: B12 VL with V2I, T7S, S32N, K44Q, K55N, V56F
B16: MPER18_d21_45.2_v55_m15_D04 (antibody, V domains shown)
VH: B15 VH with S31G, C33Y, S40P, I57T, H59Y, A71V, I117F
VL: B13 VL with L4M, A10S, Y35N, V53I, K79R, T85A, Y101C
B17: MPER18_d21_45.2_v55_12 (antibody, V domains shown)
VH: B12 VH with K13T, G49E, F51M, Y52F, Y54S, N81K, D113G, T114A
VL: B13 VL with V2I, L3V, L4M, A10S, E39D, K44R, V53I, T85A
B18: MPER18_d21_45.2_v55_m15_C11 (antibody, V domains shown)
VH: B12 VH with D27G, F51I, Y52F, Y54S, S56T, N81K, L82V, S83R, D113G, T114S
VL: DIVMTQSPLSLPVSLGDQASISCRSSQTIVYSSGYTYLEWYLQKPGQSPKLLIYKVSNRFSGVPDRFSGSGSGTDFTLKISRVEAEDLGVYFCFQGSHVPWTFGGGTKLEIK
B19: MPER18_d21_45.2_v55_17 (antibody, V domains shown)
VH: B15 VH with C33F, S40P, Y53N, I57T, H59Y, N60H, A71V
VL: B18 VL with I2V, V3L, S7T, T28S, Y31H, Y35N, F67I, S68G
B20: MPER18_d21_45.2_v55_22 (antibody, V domains shown)
VH: B15 VH with C33Y, S40P, I57T, H59Y, A71V, S106G, S109F
VL: DVLMTQTPLSLPVSLGDQASISCRSSQSIVHSNGNTFLEWYLQKPGQSPNLLIYRVSNRLSGVPDRFSGSGSGTDFTLKISRVEAEDLGVYYCFQGSHVPWTFGGGTKLEIK
B21: MPER18_d21_45.2_v55_m5_D04 (antibody, V domains shown)
VH: B15 VH with C33Y, S40P, Y50H, I57T, H59Y, S65G, A71V, S83T
VL: B13 VL with L4M, S7T, A10S, L38V, V53I, S68T, T85A, E86A
B22: MPER18_d21_45.2_v55_15 (antibody, V domains shown)
VH: B15 VH with C33S, S40P, Y52S, I57T, H59Y, A71V, N76S, S106N, G107E
VL: B20 VL with T7I, H31Q, S32N, Y41F, N50K, L60F
B23: MPER18_d21_45.2_v55_m15_A04 (antibody, V domains shown)
VH: B15 VH with C33Y, S40P, Y52F, I57T, H59Y, K64R, A71V, D72G, S83N, V112M
VL: B18 VL with V3L, T28S, Y31H, S33N, Y35N, T36S, F92Y, V99I
B24: MPER18_d21_45.2_v55_21 (antibody, V domains shown)
VH: B15 VH with C33Y, S40P, Y52S, I57T, H59Y, A71V, A87T, S106N, G107E
VL: B20 VL with T7I, R24S, H31Q, S32N, Y41F, N50K, L60F
B25: MPER18_d21_45.2_v55_m5_E10 (antibody, V domains shown)
VH: B15 VH with T23S, S31G, C33Y, S40P, Y52F, I57T, H59Y, A71V, S83T
VL: B18 VL with S7T, R24S, T28N, Y31H, S33N, F92Y, W101Y
B26: MPER18_d21_45.2_v55_m15_A06 (antibody, V domains shown)
VH: B15 VH with T21A, I29F, Y32S, C33Y, S40P, I57T, H59Y, I69M, A71V
VL: B20 VL with T7S, P12S, I29V, F37Y, K44Q, N50K, R55K, L60F
B27: MPER18_d21_45.2_v55_m15_D07 (antibody, V domains shown)
VH: B15 VH with K13R, C33Y, S40P, I57T, H59Y, A71V, S83N, A96T, G107E, M110L
VL: B18 VL with Y31H, S33N, F92Y
B28: MPER18_d21_45.1_v55_m3_B08 (antibody, V domains shown)
VH: QVQLQQPGAELVKPGASVKLSCKASGYTFTSYWMHWVKQRPGQGLEWIGMIRPNSGSTNYNERFKSKATLTVDKSSSTAYMQLSSLTSGDSAVYYCAKGGTWTMDYWGQGTSVTVSS
VL: DIVMTQSPSSLSVSAGEKVTMICKSSQSLLNSGNQKNYLAWYQQKPGQPPKLLIYGASTRESGVPDRFTGSGSGTDFTLTISSVQAEDLAVYYCQNDHSYPLTFGAGTKLELK

Target: T1, 10E8-GT10.2 epitope scaffold

Row | Binder | Kd
1 | B1 | 13000 nM
2 | B2 | 6750 nM
3 | B3 | 4100 nM
4 | B4 | 1.16 nM
5 | B5 | 345 nM
6 | B6 | 985 nM
7 | B7 | 1250 nM
8 | B8 | 3.38 nM
9 | B9 | 94.6 nM
10 | B10 | 31.2 nM
11 | B11 | 4560 nM
12 | B12 | 563 nM
13 | B13 | 0.249 nM
14 | B14 | 14.8 nM
15 | B15 | 401 nM
16 | B16 | 21.9 nM
17 | B17 | 0.662 nM
18 | B18 | 6.91 nM
19 | B19 | 13.2 nM
20 | B20 | 2.87 nM
21 | B21 | 0.714 nM
22 | B22 | 9.89 nM
23 | B23 | 14.1 nM
24 | B24 | 2.21 nM
25 | B25 | 0.571 nM
26 | B26 | 86.1 nM
27 | B27 | 2.79 nM
28 | B28 | 245 nM

Reference: PMC11147780, “Vaccination induces broadly neutralizing antibody precursors to HIV gp41” (Nature Immunology, 2024)
